System: Escherichia coli TOP10
Test: shrunken log2 fold change of peptide-encoding DNA abundance (4.5 h post-induction vs induction); higher = less antimicrobial activity (less host growth inhibition)
Settings: time post-induction: 4.5 h; library: site-saturation at positions 5, 18, 19, 20
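Also: peptides expressed intracellularly from a pBAD plasmid library in pooled LB shake-flask culture, induced with 0.3% L-arabinose, DNA abundance read by NGS, three biological replicates, DESeq2 with apeglm shrinkage.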

| Sequence | shrunken log2 fold change |
| --- | --- |
| RRIRVRPPRLPRPRPRPHWCPRP | -0.144 |
| RRIRSRPPRLPRPRPRPHAQPRP | 0.0587 |
| RRIRKRPPRLPRPRPRPFMFPRP | -0.0278 |
| RRIRWRPPRLPRPRPRPDGPPRP | 0.199 |
| RRIRYRPPRLPRPRPRPMYPPRP | -0.00192 |
| RRIRKRPPRLPRPRPRPPDRPRP | 0.862 |
| RRIRVRPPRLPRPRPRPMLWPRP | 0.0613 |
| RRIRARPPRLPRPRPRPSMSPRP | -0.105 |
| RRIRTRPPRLPRPRPRPATEPRP | -0.0814 |
| RRIRRRPPRLPRPRPRPNKSPRP | -0.0615 |
| RRIRYRPPRLPRPRPRPSTFPRP | -0.282 |
| RRIRRRPPRLPRPRPRPPLYPRP | 0.851 |
| RRIRIRPPRLPRPRPRPGTTPRP | 0.252 |
| RRIRVRPPRLPRPRPRPHDRPRP | 0.068 |
| RRIRYRPPRLPRPRPRPQSNPRP | -0.07 |
| RRIRPRPPRLPRPRPRPRTHPRP | 0.107 |
| RRIRSRPPRLPRPRPRPGVGPRP | 0.617 |
| RRIRFRPPRLPRPRPRPRADPRP | 0.223 |
| RRIRRRPPRLPRPRPRPNEEPRP | 0.0468 |
| RRIRGRPPRLPRPRPRPDLMPRP | 0.878 |
| RRIRSRPPRLPRPRPRPENRPRP | -0.114 |
| RRIRHRPPRLPRPRPRPHQEPRP | -0.0212 |
| RRIRRRPPRLPRPRPRPPRFPRP | 1.17 |

| Sequence | shrunken log2 fold change |
| --- | --- |
| RRIRNRPPRLPRPRPRPTDGPRP | -0.113 |
| RRIRDRPPRLPRPRPRPSCDPRP | -0.0948 |
| RRIRKRPPRLPRPRPRPMVAPRP | 0.629 |
| RRIRDRPPRLPRPRPRPTTKPRP | 0.0962 |
| RRIRVRPPRLPRPRPRPLDYPRP | -0.244 |
| RRIRQRPPRLPRPRPRPLWFPRP | -0.0512 |
| RRIRIRPPRLPRPRPRPAYYPRP | -0.401 |
| RRIRSRPPRLPRPRPRPHGPPRP | -0.0864 |
| RRIRPRPPRLPRPRPRPGQLPRP | -0.0604 |
| RRIRWRPPRLPRPRPRPWHPPRP | 0.0551 |
| RRIRHRPPRLPRPRPRPDWDPRP | -0.0204 |
| RRIRIRPPRLPRPRPRPWPAPRP | -0.768 |
| RRIRMRPPRLPRPRPRPQCCPRP | 0.00357 |
| RRIRHRPPRLPRPRPRPHHDPRP | -0.166 |
| RRIRKRPPRLPRPRPRPHVWPRP | 0.82 |
| RRIRFRPPRLPRPRPRPAPEPRP | 0.81 |
| RRIRARPPRLPRPRPRPNFDPRP | 0.281 |
| RRIRYRPPRLPRPRPRPHNWPRP | -0.926 |
| RRIRSRPPRLPRPRPRPTFFPRP | -0.0698 |
| RRIRHRPPRLPRPRPRPQIGPRP | -0.0135 |
| RRIRVRPPRLPRPRPRPGTYPRP | -0.166 |
| RRIRDRPPRLPRPRPRPGTLPRP | -0.00146 |
| RRIRFRPPRLPRPRPRPTWWPRP | 0.494 |

| Sequence | shrunken log2 fold change |
| --- | --- |
| RRIRRRPPRLPRPRPRPHIIPRP | -0.259 |
| RRIRMRPPRLPRPRPRPHIDPRP | 0.29 |
| RRIRKRPPRLPRPRPRPHAFPRP | 0.106 |
| RRIRVRPPRLPRPRPRPKVAPRP | 0.12 |
| RRIRYRPPRLPRPRPRPEGGPRP | 0.0214 |
| RRIRTRPPRLPRPRPRPRQAPRP | 0.171 |
| RRIRFRPPRLPRPRPRPKIVPRP | -0.207 |
| RRIRPRPPRLPRPRPRPDAVPRP | 0.325 |
| RRIRYRPPRLPRPRPRPSTPPRP | -0.24 |
| RRIRVRPPRLPRPRPRPQMTPRP | -0.0158 |
| RRIRRRPPRLPRPRPRPEHNPRP | 0.183 |
| RRIRGRPPRLPRPRPRPVWEPRP | 0.761 |
| RRIRHRPPRLPRPRPRPIRVPRP | -0.361 |
| RRIRKRPPRLPRPRPRPHCPPRP | -0.00424 |
| RRIRFRPPRLPRPRPRPAIYPRP | -0.999 |
| RRIRGRPPRLPRPRPRPFVLPRP | -0.000308 |
| RRIRMRPPRLPRPRPRPIQMPRP | -0.0558 |
| RRIRPRPPRLPRPRPRPNMTPRP | -0.13 |
| RRIRMRPPRLPRPRPRPARNPRP | -0.0385 |
| RRIRGRPPRLPRPRPRPEDYPRP | 0.555 |
| RRIRMRPPRLPRPRPRPHGQPRP | 0.155 |
| RRIRDRPPRLPRPRPRPYIRPRP | -0.12 |
| RRIRNRPPRLPRPRPRPHLCPRP | 0.183 |

| Sequence | shrunken log2 fold change |
| --- | --- |
| RRIRGRPPRLPRPRPRPHGWPRP | 0.161 |
| RRIRVRPPRLPRPRPRPVYFPRP | -0.334 |
| RRIRTRPPRLPRPRPRPYVPPRP | -0.1 |
| RRIRQRPPRLPRPRPRPGHIPRP | -0.0594 |
| RRIRMRPPRLPRPRPRPNAVPRP | 0.0414 |
| RRIRRRPPRLPRPRPRPGSYPRP | -0.0811 |
| RRIRWRPPRLPRPRPRPCMDPRP | -0.18 |
| RRIRDRPPRLPRPRPRPIAVPRP | -0.00168 |
| RRIRPRPPRLPRPRPRPRMMPRP | 0.323 |
| RRIRDRPPRLPRPRPRPVHHPRP | 0.0594 |
| RRIRFRPPRLPRPRPRPYIDPRP | -0.348 |
| RRIRWRPPRLPRPRPRPKMRPRP | 1.25 |
| RRIRCRPPRLPRPRPRPWVSPRP | -0.463 |
| RRIRMRPPRLPRPRPRPDCIPRP | 1.76 |
| RRIRQRPPRLPRPRPRPDAGPRP | -0.0738 |
| RRIRHRPPRLPRPRPRPRTYPRP | -0.749 |
| RRIRERPPRLPRPRPRPKCMPRP | -0.0455 |
| RRIRKRPPRLPRPRPRPKTNPRP | 0.485 |
| RRIRERPPRLPRPRPRPYTYPRP | -0.0595 |
| RRIRERPPRLPRPRPRPDPLPRP | 0.00979 |
| RRIRRRPPRLPRPRPRPMHWPRP | 0.148 |
| RRIRLRPPRLPRPRPRPEVFPRP | 0.0607 |

Reference: the supplement of paper PMC9112550, “Optimization of the antimicrobial peptide Bac7 by deep mutational scanning” (BMC Biology, 2022)
